Results as given in patent US20230112794A1 (NATIONAL TAIWAN UNIVERSITY, published 2023).

Experiments:
[1] = biological target: T1, recombinant human Hyper-IL-6 (HyIL-6), fusion of human sIL-6Rα and human IL-6 (human); experiment: BLI (Octet), KD on HyIL-6 against KD on IL-6
T1 construct: also called human IL-6Rα/IL-6 chimera; fusion protein of sIL-6Rα/IL-6
Method: (§1) FIG. 5 illustrates the binding kinetics of C14mab. Biolayer interferometry analysis of the binding of C14mab to IL-6 (a) and HyIL-6 (b) was carried out. […] Kinetic parameters were evaluated by using a 1:1 binding model with global fitting. The experimental curves of each concentration (solid line) are shown alongside the fitted curves (dashedline). One representative set of curves is shown from three independent experiments.
(§2) Octet is based on Bio-Layer Interferometry (BLI) for measuring protein-protein interactions. BLI analyzes the interference pattern of white light reflected from two surfaces: a layer of immobilized protein on the biosensor tip and an internal reference layer. The binding between C14mab immobilized on the biosensor tip surface using Biosensor AMC tips (ForteBio, Pall Corporation) and IL-6 (R&D systems) and HyIL-6 (R&D systems) in complex was measured. Interference patterns for the binding to or dissociating from the biosensor were measured in real time to generate a response profile on the Octet® System Octet 96 Red (ForteBio, Pall Corporation). Kinetic parameters were evaluated by using a 1:1 binding model with global fitting of three independent experiments with the Octet Red analysis software.

[2] = biological target: T1, recombinant human Hyper-IL-6 (HyIL-6), …; experiment: indirect ELISA, EC50 on HyIL-6 against EC50 on IL-6
Method: (§3) FIG. 4 illustrates the binding characteristics of purified C14mab. (a) The microplates were coated with human IL-6 (20 ng/well), HyIL-6 (60 ng/well), and IL-6 Ra (40 ng/well). Serial dilutions of C14mab were added for 1 hr at room temperature. The binding ELISA data is graphed with OD₄₅₀ readings and their associated binding percentages vs. log antibody concentration. Data are compiled from three independent experiments. Values represent the mean±SEM. (b) Data were normalized to maximum signal for IL-6 and HyIL-6 individually. EC₅₀ values were obtained by nonlinear regression fitting to a variable slope, four-parameter dose-response model using the GraphPad Prism software (San Diego, Calif., USA). (c) The binding of mouse HyIL-6 (60 ng/well) with C14mab was measured by ELISA as described in (a). Values represent the mean±SEM from three independent experiments.

recombinant human IL-6 [3] = biological target: T2, recombinant human IL-6 (human, UniProt P05231 30-212); experiment: indirect ELISA, IL-6 coated at 20 ng/well, four-parameter fit; coated IL-6
T2 construct: Bought protein (R&D systems); also called Interleukin-6
Method: as §3

[4] = biological target: T1, recombinant human Hyper-IL-6 (HyIL-6), …; experiment: indirect ELISA, HyIL-6 coated at 60 ng/well, four-parameter fit; coated human HyIL-6
Method: as §3

[5] = biological target: T3, IL-6Rα (soluble IL-6 receptor alpha, R&D systems) (human, UniProt P08887 20-358); experiment: ELISA, coated IL-6Rα (40 ng/well), serial dilution of purified C14mab [a]
T3 construct: also called IL-6 Ra; sIL-6Rα
T3 sequence (looked up): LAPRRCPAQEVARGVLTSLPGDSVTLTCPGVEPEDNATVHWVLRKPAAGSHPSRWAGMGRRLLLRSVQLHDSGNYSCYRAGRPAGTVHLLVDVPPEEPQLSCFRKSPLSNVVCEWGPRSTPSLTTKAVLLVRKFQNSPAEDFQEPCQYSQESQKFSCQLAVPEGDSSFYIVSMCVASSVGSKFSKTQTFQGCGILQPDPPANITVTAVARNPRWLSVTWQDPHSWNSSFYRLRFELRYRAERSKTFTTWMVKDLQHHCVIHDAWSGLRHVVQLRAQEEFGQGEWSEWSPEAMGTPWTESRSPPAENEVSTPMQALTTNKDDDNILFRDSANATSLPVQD
Method: as §3

recombinant human IL-6 [6] = biological target: T2, recombinant human IL-6; experiment: BLI (Octet), C14mab on anti-mouse Fc capture sensor, IL-6 1.56-25 nM, 1:1 global fit
Method: as §1, §2

[7] = biological target: T1, recombinant human Hyper-IL-6 (HyIL-6), …; experiment: BLI (Octet), C14mab on anti-mouse Fc capture sensor, HyIL-6 1.56-25 nM, 1:1 global fit
Method: as §1, §2

[8] = biological target: T4, mouse HyIL-6 (mouse IL-6/IL-6Rα complex, R&D systems) (mouse, UniProt P22272 20-357; P08505 25-211, limits assumed); experiment: ELISA, coated mouse HyIL-6 (60 ng/well), serial dilution of purified C14mab [c]
T4 construct: not shown: linker, if any, is not described for the bought mouse protein
T4 sequence (chain (part 1 of 2), looked up): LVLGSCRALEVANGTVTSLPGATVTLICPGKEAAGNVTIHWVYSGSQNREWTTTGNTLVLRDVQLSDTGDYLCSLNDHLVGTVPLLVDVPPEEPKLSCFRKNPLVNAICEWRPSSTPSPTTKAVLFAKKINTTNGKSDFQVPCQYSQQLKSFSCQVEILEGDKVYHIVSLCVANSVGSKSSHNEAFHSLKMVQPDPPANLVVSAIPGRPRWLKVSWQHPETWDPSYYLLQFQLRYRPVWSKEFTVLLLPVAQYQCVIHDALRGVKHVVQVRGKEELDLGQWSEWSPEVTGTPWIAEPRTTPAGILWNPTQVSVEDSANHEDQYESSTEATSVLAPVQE
T4 sequence (chain (part 2 of 2), looked up): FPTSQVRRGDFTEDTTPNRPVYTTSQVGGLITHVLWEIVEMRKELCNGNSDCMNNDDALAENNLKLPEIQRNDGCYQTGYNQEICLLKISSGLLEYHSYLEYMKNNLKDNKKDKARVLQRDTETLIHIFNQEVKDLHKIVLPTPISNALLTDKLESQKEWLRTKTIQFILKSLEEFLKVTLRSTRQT
Method: as §3

[9] = biological target: T5, IL-6/IL-6Rα complex (IL-6 bound to sIL-6Rα, not fused) (human, UniProt P08887 20-358; P05231 30-212); experiment: ELISA, coated sIL-6Rα (50 ng/well), IL-6 (10 ng/well) added, C14mab added without washing off unbound IL-6 [b]
T5 construct: Non-covalent complex; also called IL-6/sIL-6Rα combination; IL-6/sIL-6R combination
Method: FIG. 8 illustrates the epitope of HyIL-6/C14mab interaction. (a) Differential HDX of HyIL-6 upon C14mab binding. […] (b) A scheme depicts the assay procedure (left panel). The microplates were coated with sIL-6 Rα (50 ng/well) in PBS buffer at 4° C. overnight and blocked with 1% BSA in PBS for 1 hr. Then plates were washed with PBS containing 0.05% Tween-20. Upper; without washing group, IL-6 (10 ng/well) was added for 1 hr at room temperature. Then serial dilution concentrations of C14mab were added directly for another 2 hrs. Lower; washing group, IL-6 (10 ng/well) was added for 1 hr at room temperature. After plates were washed with PBS containing 0.05% Tween-20, serial dilution concentrations of C14mab were added directly for another 1 hr. The bound C14mab was determined by ELISA. The binding results with or without washing before C14mab incubation are shown in blue and red, respectively (right panel). One representative assay of 3 is shown.
To further understand the C14mab binding mechanism in HyIL-6, we performed an indirect ELISA assay using C14mab as a detection antibody. Briefly, IL-6Rα was immobilized directly on the plate and then IL-6 was added to the IL-6Rα and allowed to bind. The unbound IL-6 was washed away and the IL-6/IL-6Rα complex was detected by C14mab (FIG. 8(b)).

fold binding strength against IL-6 [1]: ~4 times
fold stronger EC50 than for IL-6 [2]: ~3.5 times
EC50 (recombinant human IL-6 [3]): 0.0153 µg/mL
EC50 [4]: 0.0043 µg/mL
binding result [5]: no binding (tested: 10 µg/ml)
Kd (recombinant human IL-6 [6]): 1.13 nM
koff (recombinant human IL-6 [6]): 0.000665 s⁻¹
kon (recombinant human IL-6 [6]): 605000 M⁻¹ s⁻¹
Kd [7]: 0.286 nM
koff [7]: 0.000144 s⁻¹
kon [7]: 498000 M⁻¹ s⁻¹
binding result [8]: no binding (tested: 10 µg/ml)
EC50 (read off the curve) [9]: ~0.6 µg/mL
B1: C14 monoclonal antibody (C14mab) (antibody, IgG1, V domains shown)
VH: EVNLEESGGGLVQPGGSMQLSCAASGFTFSDAWMDWVRQSPEKGLEWVAEVRTKGYYPVTFYAESVKGRFTISRDDSKSSVYLQMNSLRAEDTGIYYCTRPHYGYGYFDVWGAGTTVTVSS
VL: not shown
notes: Early experiments used the C14 hybridoma culture supernatant; also called C14 clone
